IC50 data for one molecule are collected here from publication PMC7294595 (2020).

In test [1] the target is T1, ac-pTyr (gp130-derived phosphopeptide) (Homo sapiens).
T1 chain: Ac-G[pY]LPQTV-NH2
Put plainly: competition fluorescence polarization. (In general: Polarisation of emitted light reports the rotation of a fluorescent probe.)

The target in another test is T2, CPP12-pTyr (Homo sapiens, not fully specified).
T2 chain: {CPP12-βAla-βAla}-G[pY]LPQTV-NH2
Kind of test: competition fluorescence polarization.

[ ]: non-standard residue; d: D form. CPP12 = cyclic cell-penetrating peptide fused at the N-terminus; pY = N[C@@H](Cc1ccc(OP(=O)(O)O)cc1)C(=O)O; βAla = NCCC(=O)O

B1: STAT3 127-711 (protein)
chain: GQANHPTAAVVTEKQQMLEQHLQDVRKRVQDLEQKMKVVENLQDDFDFNYKTLKSQGDMQDLNGNNQSVTRQKMQQLEQMLTALDQMRRSIVSELAGLLSAMEYVQKTLTDEELADWKRRQQIACIGGPPNICLDRLENWITSLAESQLQTRQQIKKLEELQQKVSYKGDPIVQHRPMLEERIVELFRNLMKSAFVVERQPCMPMHPDRPLVIKTGVQFTTKVRLLVKFPELNYQLKIKVCIDKDSGDVAALRGSRKFNILGTNTKVMNMEESNNGSLSAEFKHLTLREQRCGNGGRANCDASLIVTEELHLITFETEVYHQGLKIDLETHSLPVVVISNICQMPNAWASILWYNMLTNNPKNVNFFTKPPIGTWDQVAEVLSWQFSSTTKRGLSIEQLTTLAEKLLGPGVNYSGCQITWAKFCKENMAGKGFSFWVWLDNIIDLVKKYILALWNEGYIMGFISKERERAILSTKPPGTFLLRFSESSKEGGVTFTWVEKDISGKTQIQSVEPYTKQQLNNMSFAEIIMGYKIMDATNILVSPLVYLYPDIPKEEAFGKYCRPESQEHPEADPGSAAPYLKTKFI
A word on the IC50: it is the midpoint of a concentration-inhibition curve. As for B1, the IC50 in test [1] turned out to be 610 nM; in the test with CPP12-pTyr it was 410 nM.
